Results as given in the supplement of paper PMC12764529.
± gives the half width of the 95% confidence interval.

How the values were obtained:
[1] = folding stability dG unfold (combined trypsin and chymotrypsin); higher = more stable
Method in brief: (§1)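 K50 was inferred by Bayesian fitting of sequencing counts obtained after protease digestion of designed mini-proteins. Unfolding free energy was derived by comparison with a sequence-predicted unfolded-state K50 and a shared folded-state K50, for each protease or both combined. The mini-proteins were under 80 residues, had no cysteine, were carried in a PA-tagged cDNA display construct, and were kept only if AlphaFold2 dimer inter-PAE exceeded 15.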

[2] = folding stability dG unfold from trypsin proteolysis; higher = more stable
Method in brief: as §1

[3] = folding stability dG unfold from chymotrypsin proteolysis; higher = more stable
Method in brief: as §1

Row | Sequence | folding stability dG unfold [1] | folding stability dG unfold [2] | folding stability dG unfold [3]
1 | SAGGSAGGSAGGSTKTYNAEIDNPNGPKITIPIEYRNEDGESDFEEKAKKFAEEYAKKYSAGGSAGGSAGGS [r4_168_TrMRF] | 0.547 ± 0.14 kcal/mol | -0.886 ± 0.46 kcal/mol | 0.906 ± 0.16 kcal/mol
2 | SAGGSAGGSAGKKVKISLILIAKSPEEAEEAAKAIKEAFGSEDVEVDIIEIPAKLGPGKLSAGGSAGGSAGG [r17_285_TrMRF] | 0.378 ± 0.26 kcal/mol | 0.319 ± 0.072 kcal/mol | 0.252 ± 0.12 kcal/mol
3 | SAGGSAGGPSPNQPERQQVQVEAKIRFPDPNGKEWTIEITAYGSVGDARDAARSLAREIKNGKISAGGSAGG [r6_944_TrROS] | -0.484 ± 0.16 kcal/mol | -0.494 ± 0.17 kcal/mol | -0.782 ± 0.49 kcal/mol
4 | SAGGSAGGSAGGMREVIRRPEASGEVTVEPLPEDERRPVDFGSDGVVLWREGDEVVVEPSAGGSAGGSAGGS [r10_817_JUSTAS] | 0.562 ± 0.08 kcal/mol | 0.00105 ± 0.087 kcal/mol | 0.72 ± 0.043 kcal/mol
5 | SAGKYIMHPIKAGAEIKITIPPEGYRIKIGMYYPNGGKMEEHEVPIKPGKTLEFKIPDPNFFVMIEPEPSAG [r5_797_TrROS] | 1.3 ± 0.26 kcal/mol | 0.984 ± 0.1 kcal/mol | 1.57 ± 0.25 kcal/mol
6 | SAGGSASMARVEAIAEEIAPRLKAEGRPIARIEVTATRLPDGTVVVPITLTTPDGTPVYTFEVVVESAGGSA [r15_232_JUSTAS] | 1.48 ± 0.058 kcal/mol | 1.03 ± 0.051 kcal/mol | 1.74 ± 0.032 kcal/mol
7 | SAGSRILERLREEGLTITKVTSVEKGPGYERIEVETALPDGTTGKVKVTRDPADPDKIEVELEFTPAEVSAG [r5_683_JUSTAS] | 1.38 ± 0.052 kcal/mol | 0.797 ± 0.022 kcal/mol | 1.71 ± 0.023 kcal/mol
8 | SAGGSAGGSAGGMLTIVEVLSKDPEKPVYTVKVKFPDGSEKTLEVPPELLSNPEKEIVLESAGGSAGGSAGG [r7_117_JUSTAS] | 1.47 ± 0.12 kcal/mol | 1.23 ± 0.072 kcal/mol | 1.44 ± 0.07 kcal/mol
9 | SMTIERHPDKLTVRVPAAFSTVPEVVRFLKELGFELPPGVKDVRVEDVEPGARVVRVTVHFDDPEALERLSA [r9_820_TrMRF] | 1.81 ± 0.031 kcal/mol | 1.97 ± 0.024 kcal/mol | 1.58 ± 0.049 kcal/mol
10 | SAGGSMIEEAIEEALKKGLEKVEIEVEVEVNGKIYRVKMEIVKVEEGKVEIKIEVEEIDPETGKLISAGGSA [r2_420_TrROS_Hall] | 3.53 ± 0.19 kcal/mol | 2.54 ± 0.13 kcal/mol | 3.92 ± 0.15 kcal/mol
11 | SAEIEVKPGEELEITVNGKKLRITVEKVEVRVEVKELPPPPPPEVEVYTLTRDPATDELRLERRTAEELASA [r9_881_TrROS_Hall] | 0.23 ± 0.15 kcal/mol | 0.0576 ± 0.22 kcal/mol | 0.352 ± 0.24 kcal/mol
12 | SKKKKEKKKKEKEKKEKKKVIVLSEEELLEKVRELAKKGKKVKIVVKTPDKELAERLAKEAEELGVEVEVSA [r9_468_TrROS_Hall] | 1.31 ± 0.13 kcal/mol | 1.45 ± 0.059 kcal/mol | 1.32 ± 0.027 kcal/mol
13 | SAGGSATLPEKILEELAAAGYPLEYVTITEVKTEERPGSVVVTVKVEYKVPNSDRIETVNLTVPRPSAGGSA [r15_863_JUSTAS] | 1.73 ± 0.036 kcal/mol | 1.71 ± 0.032 kcal/mol | 1.68 ± 0.029 kcal/mol
14 | SAGGSAGGYWKVEIKNGMTFSIPGMTLDEAKNHARWHGFPMPIDKIEIEPVKPPPPPPKDPDDQSAGGSAGG [r6_688_TrROS] | 2.75 ± 0.35 kcal/mol | 2.27 ± 0.14 kcal/mol | 2.95 ± 0.22 kcal/mol
15 | SAGGLKIDEFERSPNQGRYYVTIKIYHPDNGKPWDIEVPFNPDNGRWSAEEIAKTIAKKFKLPPGFTISAGG [r13_362_TrROS] | 2.05 ± 0.062 kcal/mol | 1.814 ± 0.014 kcal/mol | 2.3 ± 0.08 kcal/mol
16 | SAGMITPEELEERIRKLAEETGGPRYRVKVRGPDGPLYEFEVGFTPEEIERLAKELGVDIVEVEPIPESAGG [r19_50_TrMRF] | 3 ± 0.11 kcal/mol | 2.97 ± 0.085 kcal/mol | 3.07 ± 0.13 kcal/mol

Row | Sequence | folding stability dG unfold [1] | folding stability dG unfold [2] | folding stability dG unfold [3]
17 | SAGGSAGGMIVLPPGATVDFDPSVARLTVTVKDPNSDKSTTTTYDVPPTATVTSAPGTIVVNVPSAGGSAGG [r6_804_JUSTAS] | 0.171 ± 0.073 kcal/mol | -0.656 ± 0.14 kcal/mol | 0.476 ± 0.11 kcal/mol
18 | SAGGSAGGSAKVVVDEVEVEVFKNEDGEEVLRVRFKKTGEEVEIPLEDLEKLELPPGAVVEPSAGGSAGGSA [r18_288_TrROS_Hall] | 1.41 ± 0.07 kcal/mol | 0.246 ± 0.035 kcal/mol | 1.84 ± 0.05 kcal/mol
19 | SAGGTLEEFARDLAKELAKENGGKNVPFEIEIPVKMEWYPSPDGDPEPIMTHPMRIRIQFQIPPGQPSAGGS [r16_156_TrROS] | 1.08 ± 0.15 kcal/mol | 0.389 ± 0.11 kcal/mol | 1.53 ± 0.14 kcal/mol
20 | SAGGGSATLVGIFPEKGYLVVLTITTDGDDFSIGELKVTFEPLDDDSVKATFYTPSGQKHDAIGLPVASAGG [r13_515_TrMRF] | 1.46 ± 0.059 kcal/mol | 1.54 ± 0.053 kcal/mol | 1.42 ± 0.1 kcal/mol
21 | SAGGNPDGKPDGGVSFVVNVAKTKPYIDPSTGKVYPVVEVKPVVIEVKKDEKLDLSELLKNTDYISVSSAGG [r13_753_TrMRF] | 0.0383 ± 0.12 kcal/mol | -0.463 ± 0.14 kcal/mol | 0.142 ± 0.13 kcal/mol
22 | SAGGSAGMNSEITLTIPVPHPRDEEGRVLPLSPEAIEKELKEKGYNVKIKEVKTSPSTITVTLKIISAGGSA [r15_225_JUSTAS] | 0.957 ± 0.072 kcal/mol | 0.864 ± 0.053 kcal/mol | 1 ± 0.082 kcal/mol
23 | SAGMVEVYEEDKRLLVRVTLESPDPSTITEETVRELLERLGLPVEELEISPTALPNGSYTVTAEVVVLPSAG [r5_922_JUSTAS] | 1.59 ± 0.17 kcal/mol | 1.39 ± 0.056 kcal/mol | 1.61 ± 0.025 kcal/mol
24 | SAGGSSSTPVSSSTFTTPDGVTVSVTTTLEPDASGNPYTVTTETFPDGTVTTTTYRNGETQTTTVASAGGSA [r2_182_JUSTAS] | 1.34 ± 0.088 kcal/mol | 1.28 ± 0.041 kcal/mol | 1.33 ± 0.11 kcal/mol
25 | SAGGSAGGSDVTVTEYDVTLTVDVTFTAPDANGNPVTTTTPVTIPLKVTVFDFGTARLVVVEGSAGGSAGGS [r20_58_TrMRF] | 3.57 ± 0.058 kcal/mol | 2.86 ± 0.087 kcal/mol | 3.82 ± 0.048 kcal/mol
26 | SAGGSAGGSAGGKIKDIDVQQMPDGWYWVEIEIPDPNGEEVKITIMFPPGHSVDDALDQLSAGGSAGGSAGG [r7_54_TrROS] | 1.04 ± 0.22 kcal/mol | 1.01 ± 0.069 kcal/mol | 1.03 ± 0.093 kcal/mol
27 | SAGGSAGMSTVTVPLTVELVDPNNGNLKKVIERPLTVPAELSLDEVKEIVREEAKKEGLTIAKILLSAGGSA [r15_195_JUSTAS] | 0.00724 ± 0.13 kcal/mol | -0.122 ± 0.21 kcal/mol | -0.0556 ± 0.092 kcal/mol
28 | GEERTFSLWVKTKSPQEARQLQEKIKDILRGPGYEVKIDDVEVSPNGWMKVNITMRPGMPQDRLRDALRKIS [r1_485_TrROS] | 4.99 ± 0.07 kcal/mol | 3.93 ± 0.082 kcal/mol | 5.24 ± 0.06 kcal/mol
29 | SAGGEVKVVKAEVTTLPDGRKLVRLLLEVGGKFYPVLIDVHPDGVRITFPDGKTATIKLEDLKNLTWSAGGS [r16_593_TrMRF] | 2.15 ± 0.12 kcal/mol | 2.64 ± 0.094 kcal/mol | 1.73 ± 0.14 kcal/mol
30 | SAEPKRYYALVVKRPDGKWLVFYFEDVEEGRERFEEFLRKEFPEDFEVELFEVEPSEAESIEKLLEALGSAG [r14_900_TrMRF] | 4.61 ± 0.17 kcal/mol | 3.07 ± 0.14 kcal/mol | 4.8 ± 0.091 kcal/mol
31 | SAGGSAMTAEELKGMKVKITLKNGKKIEAKIKKVEVINGEIYIEIDGKKIKLKKNEKYKIEIVEKKSAGGSA [r15_355_TrROS_Hall] | 2.06 ± 0.16 kcal/mol | 1.84 ± 0.093 kcal/mol | 2.22 ± 0.067 kcal/mol
